Experimental data taken from article doi:10.1101/634592.

Columns and labels:
[1] = molecular target: PI4KB (isoform 2, E. coli produced, non-phosphorylated) (human) (UniProt Q9UBF8); assay: HDX-MS
[2] = molecular target: PI4KB phosphorylated at Ser496 (E. coli produced, PKA treated) (human) (UniProt Q9UBF8); assay: HDX-MS

Work on “c10orf76 (untagged, E. coli produced) (from UniProt Q5T2E6 1-689) (natural protein)” yielded a Kd [1] of 30 nM and a Kd [2] of 85 nM.
